Assay results: patent US6451528B1, “Sperm-specific AKAP protein genes and uses” (Oregon Health & Sciences University, priority 1999, dated 2002)

Molecular target: T1, RIIα binding to AKAP110 (Mus musculus, UniProt P12367)
T1 construct: made in house; host or cells: E. coli
Test: RII overlay binding assay with 32P-labeled RIIα
Details: peptide included in the binding assay at a concentration of 1 μM; results in FIG. 4D
Experimental: The identity of AKAP110 in the extracts prepared as described above was determine using an RII overlay assay. This assay was based on previous experiments which had shown that PKA anchoring proteins could be specifically detected after electrophoretic separation by overlay with labeled RII subunit of mammalian PKA (see Vijayaraghavan et al., 1997, J. Biol. Chem. 272; 4747-4752). These assays were performed as follows. Polyacrylamide gel electrophoresis containing sodium dodecyl sulfate (SDS/PAGE) was performed as described in Johnson et al. (1997, Devel. Biol. 192: 340-350) and Visconti et al. (1997, Devel. Biol. 192: 351-363). Approximately […] protein per lane was loaded on a 10% gel and electrophoresed overnight at a constant current of 8mA. After electrophoresis, protein bands were transferred to Immobilon P (polyvinylidene difluoride, obtained from Millipore, Bedford, Mass.) as described in the Johnson and Visconti references. […]
The conserved regions of sequence are expected to correspond to functional domains. The portion of the sequence corresponding to the RII binding domain was determined using an RII overlay assay as follows. […] This blot was then hybridized with ^32P-labeled RIIα (results shown in FIG. 4A) or with horse radish peroxidase-conjugated S-protein that detects an S-tag expressed as a fusion protein by the pET30A vector (results shown in FIG. 4B). […]

T1 sequence (P12367 2-401 limits assumed): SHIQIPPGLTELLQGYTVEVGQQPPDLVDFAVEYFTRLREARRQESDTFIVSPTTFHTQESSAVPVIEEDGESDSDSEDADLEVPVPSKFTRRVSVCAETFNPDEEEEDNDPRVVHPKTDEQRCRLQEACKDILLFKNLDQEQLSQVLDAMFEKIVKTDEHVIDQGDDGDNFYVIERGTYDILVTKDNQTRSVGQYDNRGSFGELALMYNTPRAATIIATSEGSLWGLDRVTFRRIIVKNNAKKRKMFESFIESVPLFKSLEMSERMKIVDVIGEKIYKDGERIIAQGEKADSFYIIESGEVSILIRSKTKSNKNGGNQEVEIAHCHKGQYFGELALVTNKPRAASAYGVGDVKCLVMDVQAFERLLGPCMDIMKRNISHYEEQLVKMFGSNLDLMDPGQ

SFYANRLTNLVI (listed as Mus musculus)
radiolabeled RIIα binding: prevent radiolabeled RIIα binding
